Reference: US20200199207A1 (MABYLON, published 2020)

Tests used:
[1] = target: T1, Ara h 2 (peanut, UniProt Q6PSU2 22-172); experiment: competition ELISA on coated Ara h 2; competitor: Patient F serum IgE
T1 construct: also called full length Ara h 2
T1 sequence (looked up): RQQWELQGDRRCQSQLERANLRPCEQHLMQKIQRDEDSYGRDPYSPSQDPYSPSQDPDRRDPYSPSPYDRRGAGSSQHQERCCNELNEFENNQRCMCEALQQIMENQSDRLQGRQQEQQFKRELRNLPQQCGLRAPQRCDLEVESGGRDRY
Description: (§1) Microplates were coated with […] of Ara h 1, Ara h 2, Ara h 3, or Ara h 6, overnight at 4° C. After washing with PBS-Tween 0.05% and blocking with 2% BSA, plates were incubated with increasing concentrations of peanut human IgG antibodies for 1 h at room temperature. Subsequently, plates were incubated with different sera dilutions or different concentrations of murine antibody (as positive control). IgE levels were detected using anti-human HRP-conjugated Fc-epsilon-specific secondary antibody (Abcam, Cambridge, UK) followed by addition of TMB solution (TMB, Sigma, Buchs, Switzerland). Binding of murine antibodies was detected using goat anti-mouse IgG (H+L)-HRP (Jackson ImmunoResearch, West Grove, Pa., USA).

[2] = target: T1, Ara h 2; experiment: competition ELISA on coated Ara h 2; competitor: Patient E serum IgE
Description: as §1

[3] = target: T2, nAra h 1 (peanut, UniProt P43238 85-626); experiment: ELISA, antigen-coated plate
T2 construct: Bought natural allergen; also called naturally extracted Ara h 1
T2 sequence (looked up): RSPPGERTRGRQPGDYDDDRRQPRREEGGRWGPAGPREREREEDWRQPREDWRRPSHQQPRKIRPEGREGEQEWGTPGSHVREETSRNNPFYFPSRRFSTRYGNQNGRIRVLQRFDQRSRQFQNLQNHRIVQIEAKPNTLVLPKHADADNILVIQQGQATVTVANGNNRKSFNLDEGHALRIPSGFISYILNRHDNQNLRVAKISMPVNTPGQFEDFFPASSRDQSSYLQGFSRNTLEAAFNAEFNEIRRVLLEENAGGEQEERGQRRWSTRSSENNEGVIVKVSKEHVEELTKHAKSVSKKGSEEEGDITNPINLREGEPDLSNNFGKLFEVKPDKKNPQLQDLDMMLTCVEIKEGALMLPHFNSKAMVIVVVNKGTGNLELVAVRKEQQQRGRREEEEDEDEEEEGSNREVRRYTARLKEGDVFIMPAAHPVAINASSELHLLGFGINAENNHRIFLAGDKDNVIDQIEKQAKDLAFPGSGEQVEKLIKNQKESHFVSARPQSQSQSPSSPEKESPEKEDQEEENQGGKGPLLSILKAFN
Description: (§2) EC50 binding of exemplary anti-peanut antibodies of the present invention to peanut allergens or peanut extract, was determined by ELISA. Serial dilutions of MAbs (from 1000 ng/ml down to 0.0169 ng/ml) were incubated for 2 hours with antigen-coated plates (coating overnight at 4° C. or 1 h at 37° C. with 1 μg/ml antigen in PBS, followed by wash out and blocking with 2% BSA in PBS). The plates were subsequently washed and binding of MAbs was detected with anti-human HRP-conjugated Fc-gamma-specific secondary antibody (Jackson ImmunoResearch, West Grove, Pa., USA). Concentrations of MAb resulting in half of maximal binding to respective antigens (EC50, ng/ml) were calculated using GraphPad Prism 5 software on sigmoidal dose-response curves (variable slope, 4 parameters) obtained by plotting the log of the concentration versus OD450 nm measurements; for the results see FIG. 3 and table 2.

[4] = target: T3, nAra h 3 (peanut); experiment: ELISA, antigen-coated plate
T3 construct: Bought natural allergen; also called naturally extracted Ara h 3
Description: as §2

[5] = target: T4, nBet v 1 (UniProt P15494 2-160); experiment: ELISA, antigen-coated plate
T4 sequence (looked up): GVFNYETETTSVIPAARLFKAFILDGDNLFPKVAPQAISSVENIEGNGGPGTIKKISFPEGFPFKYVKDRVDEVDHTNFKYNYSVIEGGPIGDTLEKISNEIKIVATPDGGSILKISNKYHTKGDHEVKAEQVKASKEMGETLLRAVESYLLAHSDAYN
Description: as §2

[6] = target: T5, nAra h 2 (peanut, UniProt Q6PSU2 22-172); experiment: ELISA, antigen-coated plate
T5 construct: Bought natural allergen; also called naturally extracted Ara h 2
T5 sequence (looked up): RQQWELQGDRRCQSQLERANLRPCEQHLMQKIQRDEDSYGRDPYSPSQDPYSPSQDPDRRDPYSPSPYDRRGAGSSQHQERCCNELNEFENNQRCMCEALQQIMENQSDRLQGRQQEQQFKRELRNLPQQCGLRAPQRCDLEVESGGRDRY
Description: as §2

[7] = target: T6, nAra h 6 (peanut, UniProt Q647G9 22-145); experiment: ELISA, antigen-coated plate
T6 construct: Bought natural allergen; also called naturally extracted Ara h 6
T6 sequence (looked up): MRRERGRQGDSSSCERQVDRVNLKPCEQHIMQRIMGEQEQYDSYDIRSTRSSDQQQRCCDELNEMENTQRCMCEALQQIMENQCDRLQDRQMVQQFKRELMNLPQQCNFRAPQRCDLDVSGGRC
Description: as §2

[8] = target: T1, Ara h 2; experiment: competition ELISA on coated Ara h 2; competitor: Patient G serum IgE
Description: as §1

[9] = target: T1, Ara h 2; experiment: competition ELISA on coated Ara h 2; control: Healthy donor serum
Description: as §1

[10] = target: T1, Ara h 2; experiment: competition ELISA on coated Ara h 2; competitor: Patient A serum IgE
Description: as §1

[11] = target: T1, Ara h 2; experiment: competition ELISA on coated Ara h 2; competitor: Patient B serum IgE
Description: as §1

[12] = target: T1, Ara h 2; experiment: competition ELISA on coated Ara h 2; competitor: Patient D serum IgE
Description: as §1

[13] = target: T1, Ara h 2; experiment: competition ELISA on coated Ara h 2; competitor: Patient C serum IgE
Description: as §1

B1: h12G10 (antibody, human IgG1, V domains shown)
VH: EVQLLESGGRLLRPGGSLSLSCVASGFYFGDFGMSWVRQVPGKGLEWVSGIDWSGRSTGYVDSMKGRLTISRDNDKSSLYLQMNDLRGEDTAVYYCARVGRLCSGDSCDSMGAFDLWGQGTMVTVSS
VL: DIQLTQSPSTLSASIGDSVTITCRASQNIDNWLAWYQQKPGKAPRLLIYKASSLGSGVSSKFRGSGFGTEFTLTITSLQPDDFATYYCQKSNGYSRTFGQGTKVDIK
notes: Recombinant human IgG; also called hMAb 12G10
- % inhibition of IgE binding [1]: 45.3%
- % inhibition of IgE binding [2]: 36.2%
- EC50 [3]: 242 ng/mL
- EC50 [4]: 33.7 ng/mL
- binding result [5]: no binding (tested: 1000 ng/ml)
- EC50 [6]: 6.8 ng/mL
- EC50 [7]: 17.2 ng/mL
- % inhibition of IgE binding [8]: 25.7%
- % inhibition of IgE binding [9]: 0%
- % inhibition of IgE binding [10]: 13.8%
- % inhibition of IgE binding [11]: 31.2%
- % inhibition of IgE binding [12]: 35.7%
- % inhibition of IgE binding [13]: 53.8%

B2: h32B10 (antibody, V domains shown)
VH: QVQLVQSGAEVKKPGASVKVSCRASGYIFRNFDINWVRQATGQGLEWMGWMSPKSGDTGYAQKFQGRVTMTRDTSINTAYMELSSLTSEDSAVYYCARGVDGTNWGQGTRVTVSS
VL: DIVMTQSPDSLGVSLGERATISCKSSQSILDNSNNKNFIAWFQQKPGQPPKLLIYWASARESGVPDRFSGSGSGTEFTLTINSLQAEDVAVYYCYQYYSTPHTFGQGTKLDLR
notes: Recombinant human IgG; also called hMAb 32B10
- % inhibition of IgE binding [1]: 23.1%
- % inhibition of IgE binding [2]: 29.3%
- EC50 [3]: 8.8 ng/mL
- EC50 [4]: 4.9 ng/mL
- binding result [5]: no binding (tested: 1000 ng/ml)
- EC50 [6]: 9.2 ng/mL
- EC50 [7]: 7 ng/mL
- % inhibition of IgE binding [8]: 32.8%
- % inhibition of IgE binding [9]: 0%
- % inhibition of IgE binding [10]: 27.8%
- % inhibition of IgE binding [11]: 26.7%
- % inhibition of IgE binding [12]: 8.5%
- % inhibition of IgE binding [13]: 21%

B3: h37D5 (antibody, V domains shown)
VH: EEQLVESGGRLLRPGESLSLSCAAVGFNFGDFGMAWVRQPPGKGLEWVAGINWSGHSTGFVDSMKGRLTISRDSAKSSLFLQMNSLRGEDTAVYYCARVGRLCSGDICDSMGAFDLWGQGTMVTVSS
VL: DIQMTQSPSTLSASIGDRVTITCRASQTIDNWLAWYQQRPGKAPKLLIYQASSLQSGVSSRFRGSGSGTEFTLTITSLQPDDFATYYCQKSNGYSRTFGQGTKVEIK
notes: Recombinant human IgG; also called hMAb 37D5
- % inhibition of IgE binding [1]: 36.2%
- % inhibition of IgE binding [2]: 29.3%
- EC50 [3]: 264 ng/mL
- EC50 [4]: 65.2 ng/mL
- binding result [5]: no binding (tested: 1000 ng/ml)
- EC50 [6]: 5.6 ng/mL
- EC50 [7]: 22.1 ng/mL
- % inhibition of IgE binding [8]: 45.3%
- % inhibition of IgE binding [9]: 2.27%
- % inhibition of IgE binding [10]: 27.8%
- % inhibition of IgE binding [11]: 29.6%
- % inhibition of IgE binding [12]: 35.5%
- % inhibition of IgE binding [13]: ~55.1%

B4: h4B2 (antibody, V domains shown)
VH: QVQLQEAGPRLVKPSQTLSVTCTVSGASITIGGYYWSWIRQHPGKGLEWMGYIYSNGRTYYNPSLKSRIAMSIDTSKNQFSLKLTSVTAADTAIYFCAREAWETPLWGQGTLITVSS
VL: DIQMTQSPSSLSASVGDRVTITCQANQDIVNSLNWFQHKPGTAPKVLIYDASKLETGVPSRFSGSGSGTHFTFTISGLQPEDFATYFCQQYENLPHTFGQGTKLEIR
notes: Recombinant human IgG; also called hMAb 4B2
- % inhibition of IgE binding [1]: 30.8%
- % inhibition of IgE binding [2]: 21.9%
- EC50 [3]: 5.9 ng/mL
- binding result [5]: no binding (tested: 1000 ng/ml)
- EC50 [6]: 6.7 ng/mL
- EC50 [7]: 7 ng/mL
- % inhibition of IgE binding [8]: 31.8%
- % inhibition of IgE binding [9]: 0%
- % inhibition of IgE binding [10]: 39.7%
- % inhibition of IgE binding [11]: 30.6%
- % inhibition of IgE binding [12]: 9.23%
- % inhibition of IgE binding [13]: 13.3%

B5: h2F8 (antibody, V domains shown)
VH: EVQLVESGGGLVKPGGSLRLSCAASGFIFSDYNMNWVRQAPGKGLEWVSSITRSSRTIYYADSVKGRFTISRDNAKNSLHLQMNSLRDADTAVYYCAREDFDVSTGPYYMDVWGNGTTVIVSS
VL: EIVLTQSPGTLSLSPGERATLSCRASQSVSNMFLVWYQQKPGQAPRLLMYGASTRATDIPDRFSGSGSGTDFTLTISRLEPEDFAVYYCQQNGNSPYTFGQGTKLEIK
notes: Recombinant human IgG; also called hMAb 2F8
- EC50 [3]: 8.5 ng/mL
- EC50 [4]: 2.8 ng/mL
- binding result [5]: no binding (tested: 1000 ng/ml)
- EC50 [6]: 5.6 ng/mL
- EC50 [7]: 3.4 ng/mL

B6: h7G6 (antibody, V domains shown)
VH: QVQLVESGGGVVQPGRSLRLSCAASGIAFNDYTMHWVRRSPDKGLEWVAAISYGGTNKYYADSVKGRFTISRDSSKNTLFLQMDSLRVEDTAVYYCARDSGYRSLLHWGQGTLVTVSS
VL: EIVLTQSPLSLPVTPGEPASISCRSSQSLVHRNGYNYLDWYLQKPGQSPQLLIYMASKRASGVPDRFSGSGSGTEFTLKISRVEAEDVGIYYCMQALQTWTFGQGTKVEVN
notes: Recombinant human IgG; also called hMAb 7G6
- EC50 [3]: 1.9 ng/mL
- EC50 [4]: 1.3 ng/mL
- binding result [5]: no binding (tested: 1000 ng/ml)
- EC50 [6]: 4.7 ng/mL
- EC50 [7]: 2.6 ng/mL
